Two molecules from US20250333517A1 (ROCK BIOMEDICAL, published 2025) can be followed below.

In assay [1] the target is FcγRIIIA on the effector cells of the ADCC reporter assay (UniProt P08637 17-254, limits assumed). As to the kind of experiment: cell-based or functional assay.
Another assay has as its target T1, CD20 (UniProt P11836 1-297, limits assumed).
T1 construct: also called the antigen (of Rituximab and Obinutuzumab)
T1 sequence (looked up): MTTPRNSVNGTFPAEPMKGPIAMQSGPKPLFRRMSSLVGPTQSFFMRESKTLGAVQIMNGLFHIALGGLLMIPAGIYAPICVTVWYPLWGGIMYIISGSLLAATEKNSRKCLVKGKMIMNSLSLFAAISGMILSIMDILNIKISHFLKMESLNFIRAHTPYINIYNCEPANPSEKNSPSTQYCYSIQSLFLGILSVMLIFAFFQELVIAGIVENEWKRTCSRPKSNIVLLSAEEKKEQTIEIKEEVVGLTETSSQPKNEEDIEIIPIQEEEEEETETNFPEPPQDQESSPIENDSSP
As to the kind of experiment: ELISA, target binding (FIG. 57). For orientation: In an ELISA, binding on a coated surface is turned into a signal by an enzyme label.

Assay [2] deals with T2, Vascular Endothelial Growth Factor (VEGF-A) (UniProt P15692-4 27-191, limits assumed).
T2 construct: also called the antigen (of Bevacizumab)
As to the kind of experiment: ELISA, target binding (FIG. 60).

T2 sequence (P15692 other isoform, or with tags, fused parts or gaps limits assumed): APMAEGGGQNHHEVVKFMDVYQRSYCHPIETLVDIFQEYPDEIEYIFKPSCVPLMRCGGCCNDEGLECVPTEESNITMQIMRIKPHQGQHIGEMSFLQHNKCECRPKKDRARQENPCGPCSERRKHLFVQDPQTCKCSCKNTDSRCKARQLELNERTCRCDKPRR
FcγRIIIA on the effector cells of the ADCC reporter assay, sequence (P08637 17-254 limits assumed): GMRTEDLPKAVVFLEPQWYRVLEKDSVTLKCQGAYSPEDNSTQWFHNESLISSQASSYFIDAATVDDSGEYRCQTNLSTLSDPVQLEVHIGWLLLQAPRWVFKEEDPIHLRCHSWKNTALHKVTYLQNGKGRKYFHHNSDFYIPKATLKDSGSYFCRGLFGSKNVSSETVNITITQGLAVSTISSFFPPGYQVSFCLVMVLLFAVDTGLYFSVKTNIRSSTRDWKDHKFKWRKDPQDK

B1: Rituximab population of the present disclosure (Biobetter), produced by SAII A3 Fut8 KO cells (antibody, human IgG1, kappa)
heavy: not shown
light: QIVLSQSPAILSASPGEKVTMTCRASSSVSYIHWFQQKPGSSPKPWIYATSNLASGVPVRFSGSGSGTSYSLTISRVEAEDAATYYCQQWTSNPPTFGGGTKLEIKRTVAAPSVFIFPPSDEQLKSGTASVVCLLNNFYPREAKVQWKVDNALQSGNSQESVTEQDSKDSTYSLSSTLTLSKADYEKHKVYACEVTHQGLSSPVTKSFNRGEC
modifications: N-glycan on the heavy chain: around 83.4% SCT glycans, no core fucose
notes: also called glycoengineered MabThera protein population
By EC50 is commonly meant the concentration at which the effect is half-maximal. In the case of B1, the “ADCC EC50 (M), ADCC Reporter Bioassay” value in assay [1] worked out at 1.76e-10 M. In the assay with CD20, this molecule registered an EC50 of 0.77 nM.

B2: Bevacizumab population of the present disclosure (Biobetter), produced by SAII A3 cells (antibody, V domains shown)
VH: EVQLVESGGGLVQPGGSLRLSCAASGYTFTNYGMNWVRQAPGKGLEWVGWINTYTGEPTYAADFKRRFTFSLDTSKSTAYLQMNSLRAEDTAVYYCAKYPHYYGSSHWYFDVWGQGTLVTVSS
VL: DIQMTQSPSSLSASVGDRVTITCSASQDISNYLNWYQQKPGKAPKVLIYFTSSLHSGVPSRFSGSGSGTDFTLTISSLQPEDFATYYCQQYSTVPWTFGQGTKVEIKR
modifications: N-glycan on the heavy chain: around 82.6% SCT glycans, mostly with core fucose
notes: also called glycoengineered Avastin protein population
For B2, the EC50 in assay [2] is 0.377 nM.
